Sequences and labels used below:
T1: OprF protein of Pseudomonas aeruginosa on bacteria of the CHA strain (Pseudomonas aeruginosa, UniProt P13794 25-350)
T1 sequence (looked up): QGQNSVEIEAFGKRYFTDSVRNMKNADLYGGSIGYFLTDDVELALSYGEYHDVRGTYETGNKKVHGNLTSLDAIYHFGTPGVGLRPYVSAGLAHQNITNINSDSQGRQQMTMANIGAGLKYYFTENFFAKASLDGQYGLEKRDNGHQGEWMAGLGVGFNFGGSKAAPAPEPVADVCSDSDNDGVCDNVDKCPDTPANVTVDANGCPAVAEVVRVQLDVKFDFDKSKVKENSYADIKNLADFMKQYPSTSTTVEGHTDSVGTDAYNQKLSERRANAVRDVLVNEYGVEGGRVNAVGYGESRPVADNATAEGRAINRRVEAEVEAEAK

T2: OprF protein of Pseudomonas aeruginosa with N-terminal polyhistidine tag, in proteoliposomes (Pseudomonas aeruginosa, UniProt P13794 25-350, limits assumed)
T2 construct: Made by cell-free synthesis (E. coli lysate) in the presence of liposomes; inserted in the liposomal membrane, found oligomerized, in open and closed channel conformations; Genbank AFM37279.1 is printed for OprF in general; The sense primer starts at the ATG of the gene, so the signal peptide may be part of the construct; also called porin OprF; OprF membrane antigen; not shown: N-terminal …
T2 sequence (looked up): T1 sequence (looked up)

B1: scFv fragment F8 (scFv)
scFv: QVQLEQSGAEVKQPGASVKVSCKASGYSFSSYGMNWVRQAPGQRPEWLGWINADTGKSTYAPGFKERFTFSLDTSVSTAYLTISSLKAEDTAVYYCVRSCRGGVCQLYHWGQGVLITVSSGGGGSGGGGSGGGGSEIELTQSPTSIAVSRGERVTVSCMASSSVRTGYLHWYQQKPGFPPRLLVYGTSSLPSGVPARFSGSGSGTSYTLTISSVEPEDVAHYYCQQGHTIPLTFGGGTKVEIKHHHHHHEQKLISEEDL
notes: Macaque scFv, format VH-(G4S)3-VL-6xHis-c-myc
B2: scFv fragment G9 (scFv)
scFv: QVQLEQSGAEVKHPGASVKVSCKASGYSFSTYGMNWVRQAPGQRPEWMGWINADTGKSTYAPGFKERFTFSLDTSVSTAYLTISSLKAEDTAVYYCVRSCRGGVCQLYHWGQGVLITVSSGGGGSGGGGSGGGGSELQMTQSPTSMAVSQGERVTISCTASSSVNTNYLHWYQQKPGFPPRLLVYGTSSLVAGVPARFSGSGSGTSYTLTISNMEAEDAANYYCQQGNTIPLTFGGGTKVEIKHHHHHHEQKLISEEDL
notes: as for B1
B3: scFv fragment E7 (scFv)
scFv: QVQLEQSGAEVKQPGASVKVSCKASGYSFSSYGMNWVRQAPGQRPEWMGWINADTGKSTYAPGFKERFTFSLDTSVSTAYLTISSLKAEDTAVYYCVRSCRGGVCQLYHWGQGVLITVSSGGGGSGGGGSGGGGSDIELTQSPTSIAVSQGERVTISCTASSSVTTGYFHWYQQKPGFPPRLLVYGTSSLPSGVPARFSGSGSGTSYTLTISNMEAEDAAHYYCQQGHTIPLTFGGGTKVEIKHHHHHHEQKLISEEDL
notes: as for B1
B4: scFv fragment F10 (scFv)
scFv: QVQLEQSGAEVKQPGASVKVSCKASGYSFNTYGMNWVRQAPGQRPEWMGWINADTGKSTYAPGFKERFTFSLDTSVSTAYLTISSLKAEDTAVYFCVRSCRGGVCQLYHWGQGVLVTVSSGGGGSGGGGSGGGGSDIELTQSPTSMAVSQGERVTISCTASSSVSTNYLHWYQQKPGFPPRLLVYRTSSLAPGVPARFSGSGSGTSYTLTISNMEAEDAAHYYCQQGNTIPLTFGGGTKVEIKHHHHHHEQKLISEEDL
notes: as for B1

The first test concerns the target T1, OprF protein of Pseudomonas aeruginosa …. The test can be described thus: cell-based or functional assay.
As to B1, the “cytotoxicity of P. aeruginosa towards macrophages (LDH release, A490-A680 nm)” value is ~0.67 fraction of cytotoxicity reduced. The same measure, in the same setting: as for B2, the figure is ~0.67 fraction of cytotoxicity reduced; as for B3, ~0.67 fraction of cytotoxicity reduced.

The target in another test is T2, OprF protein of Pseudomonas aeruginosa …. The test can be described thus: ELISA on coated OprF proteoliposomes, anti-c-myc-peroxidase detection, one site-specific binding fit. On the procedure: By way of example, the dissociation constant Kd is determined for the scFv fragments E7, F8, F10 and G9, with an ELISA method.
For this purpose, 100 μl of OprF proteoliposomes (containing an OprF concentration of 1 μg/ml) contained in fixation buffer (0.1 M sodium carbonate, 0.1 M sodium bicarbonate) are fixed at the bottom of the wells of a 96-well plate (Thermo Scientific®) overnight at 4° C. and under stirring. The wells are then blocked for 1 h at 21° C. with 100 μl of TBS Tween (TBST) buffer containing 5% milk. After washing the wells with 100 μl of TBST buffer, 100 μl of scFv fragment (E7, F8, F10 or G9), at 1:50; 1:200; 1:400; 1:800; 1:1600 and 1:3200 dilutions in TBST buffer, are added to the corresponding wells and incubated for 1 h at 37° C. under stirring. After washing the wells, 100 μl of anti-c-myc-Peroxidase antibody (Roche) (1:10000 dilution in TBST buffer containing 5% milk) is added to the wells and incubated for 1 h at 37° C. under stirring. After washing the wells 3 times, 50 μl of TMB is added to the wells and the plate is incubated at ambient temperature and protected from light for approximately 15 min. 50 μl of 1 M HCl is then added and the absorbance of each well is measured at 450 nm. These absorbance data are then analyzed using the GraphPad Prism software (non-linear regression analysis, “one site-specific binding” equation) in order to calculate the dissociation constant Kd of each scFv fragment tested. By way of comparison, a measurement is also made on the buffer only.
(In an ELISA, binding on a coated surface is turned into a signal by an enzyme label.)
In turn, B1 had a dissociation constant (Kd) of 211 nM.

With B4, binding was characterised by a dissociation constant (Kd) of 1490 nM.

As to B2, the Kd stood at 295 nM. This Kd lies about 5.1-fold lower than the previous one.

With B3, the Kd was 213 nM.

Broadly, the Kd is the equilibrium constant for the complex coming apart. A lower Kd goes with higher affinity.

Values taken from patent US20220267417A1 (UNIVERSIT GRENOBLE ALPES, published 2022).
